Experiments:
Experiment in all cases: sandwich EIA: 82E1 capture, HRP-labelled IBL-102; antigen 4000 pg/mL read on the E22P-Aβ42 standard curve
[1] = target: V24P-Aβ42 (Homo sapiens (Human)) (UniProt P05067)
[2] = target: G25P-Aβ42 (Homo sapiens (Human)) (UniProt P05067)
[3] = target: M35P-Aβ42 (Homo sapiens (Human)) (UniProt P05067)
[4] = target: D23P-Aβ42 (Homo sapiens (Human)) (UniProt P05067)
[5] = target: A21P-Aβ42 (Homo sapiens (Human)) (UniProt P05067)
[6] = target: E22V-Aβ42 (Homo sapiens (Human)) (UniProt P05067)

cross-reaction rate [1]: 0.33% | cross-reaction rate [2]: 0.53% | cross-reaction rate [3]: 0.68% | cross-reaction rate [4]: 0.5% | cross-reaction rate [5]: 0.27% | cross-reaction rate [6]: 0.28%
B1: IBL-102 antibody (antibody, mouse IgG1, kappa, V domains shown)
VH: EVQLQQSGPELVKPGASVKIFCKASGYTFTDYNMDWVKQSHGKRLEWIGDINPNTGVTIDNPKFKGKATLTVDESSSTVYMELRSLSSEDTAVYYCARLPDNYVMDYWGQGTSVTVSA
VL: DVVMTQTPLSLPVSLGDQASISCRCSQSLVHRNGNTNLHWYLQKSGQSPKLLIYKVSNRFSGVPDRFSGSGSGTDFTLKISRVEAEDLGVYFCSQSTYVPLTFGVGTKLELKR
